T1: wild type human endothelial nitric oxide synthase (eNOS), histidine tagged, recombinant (human), P29474
T1 chain: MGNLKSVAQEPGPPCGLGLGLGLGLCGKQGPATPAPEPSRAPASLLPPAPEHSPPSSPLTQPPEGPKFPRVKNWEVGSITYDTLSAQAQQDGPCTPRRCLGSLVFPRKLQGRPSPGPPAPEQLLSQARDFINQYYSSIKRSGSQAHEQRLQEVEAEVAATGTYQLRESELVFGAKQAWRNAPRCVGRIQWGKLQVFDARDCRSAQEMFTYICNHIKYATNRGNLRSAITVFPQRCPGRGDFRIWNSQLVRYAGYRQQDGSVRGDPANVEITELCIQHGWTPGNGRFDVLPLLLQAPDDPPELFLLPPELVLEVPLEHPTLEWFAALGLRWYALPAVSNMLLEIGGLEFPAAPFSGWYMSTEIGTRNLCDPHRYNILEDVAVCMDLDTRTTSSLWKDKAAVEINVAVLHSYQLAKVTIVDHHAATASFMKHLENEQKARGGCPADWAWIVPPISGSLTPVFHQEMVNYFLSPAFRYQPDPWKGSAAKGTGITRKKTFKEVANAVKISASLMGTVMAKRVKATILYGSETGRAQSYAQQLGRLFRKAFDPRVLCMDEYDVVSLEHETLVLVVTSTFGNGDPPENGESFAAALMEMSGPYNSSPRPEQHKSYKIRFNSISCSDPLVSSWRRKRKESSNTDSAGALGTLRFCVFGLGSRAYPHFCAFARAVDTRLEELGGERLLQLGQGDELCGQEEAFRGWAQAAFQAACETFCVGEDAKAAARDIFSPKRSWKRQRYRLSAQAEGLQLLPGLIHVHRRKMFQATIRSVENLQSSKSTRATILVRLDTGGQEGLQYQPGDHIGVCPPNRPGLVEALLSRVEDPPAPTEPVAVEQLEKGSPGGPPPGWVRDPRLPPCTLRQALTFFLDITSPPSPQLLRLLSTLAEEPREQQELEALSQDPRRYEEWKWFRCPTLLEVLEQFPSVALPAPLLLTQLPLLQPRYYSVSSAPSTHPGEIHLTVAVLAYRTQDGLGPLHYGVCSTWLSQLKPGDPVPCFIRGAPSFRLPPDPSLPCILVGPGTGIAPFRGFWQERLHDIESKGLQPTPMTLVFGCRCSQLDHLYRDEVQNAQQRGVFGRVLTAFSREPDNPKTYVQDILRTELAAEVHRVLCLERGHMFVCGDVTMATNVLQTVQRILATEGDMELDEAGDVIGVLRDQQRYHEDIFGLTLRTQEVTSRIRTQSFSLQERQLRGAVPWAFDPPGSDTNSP


Tests used:
[1] = biological target: T1, wild type human endothelial nitric …; assay: SEC; conditions: remark: other sources report otherwise
[2] = biological target: the molecule itself; assay: SEC

stoichiometry N [1]	Binder	stoichiometry N [2]
2	wild type human endothelial nitric oxide synthase (eNOS), histidine tagged, recombinant, P29474 1-1203 (enzyme) MGNLKSVAQEPGPPCGLGLGLGLGLCGKQGPATPAPEPSRAPASLLPPAPEHSPPSSPLTQPPEGPKFPRVKNWEVGSITYDTLSAQAQQDGPCTPRRCLGSLVFPRKLQGRPSPGPPAPEQLLSQARDFINQYYSSIKRSGSQAHEQRLQEVEAEVAATGTYQLRESELVFGAKQAWRNAPRCVGRIQWGKLQVFDARDCRSAQEMFTYICNHIKYATNRGNLRSAITVFPQRCPGRGDFRIWNSQLVRYAGYRQQDGSVRGDPANVEITELCIQHGWTPGNGRFDVLPLLLQAPDDPPELFLLPPELVLEVPLEHPTLEWFAALGLRWYALPAVSNMLLEIGGLEFPAAPFSGWYMSTEIGTRNLCDPHRYNILEDVAVCMDLDTRTTSSLWKDKAAVEINVAVLHSYQLAKVTIVDHHAATASFMKHLENEQKARGGCPADWAWIVPPISGSLTPVFHQEMVNYFLSPAFRYQPDPWKGSAAKGTGITRKKTFKEVANAVKISASLMGTVMAKRVKATILYGSETGRAQSYAQQLGRLFRKAFDPRVLCMDEYDVVSLEHETLVLVVTSTFGNGDPPENGESFAAALMEMSGPYNSSPRPEQHKSYKIRFNSISCSDPLVSSWRRKRKESSNTDSAGALGTLRFCVFGLGSRAYPHFCAFARAVDTRLEELGGERLLQLGQGDELCGQEEAFRGWAQAAFQAACETFCVGEDAKAAARDIFSPKRSWKRQRYRLSAQAEGLQLLPGLIHVHRRKMFQATIRSVENLQSSKSTRATILVRLDTGGQEGLQYQPGDHIGVCPPNRPGLVEALLSRVEDPPAPTEPVAVEQLEKGSPGGPPPGWVRDPRLPPCTLRQALTFFLDITSPPSPQLLRLLSTLAEEPREQQELEALSQDPRRYEEWKWFRCPTLLEVLEQFPSVALPAPLLLTQLPLLQPRYYSVSSAPSTHPGEIHLTVAVLAYRTQDGLGPLHYGVCSTWLSQLKPGDPVPCFIRGAPSFRLPPDPSLPCILVGPGTGIAPFRGFWQERLHDIESKGLQPTPMTLVFGCRCSQLDHLYRDEVQNAQQRGVFGRVLTAFSREPDNPKTYVQDILRTELAAEVHRVLCLERGHMFVCGDVTMATNVLQTVQRILATEGDMELDEAGDVIGVLRDQQRYHEDIFGLTLRTQEVTSRIRTQSFSLQERQLRGAVPWAFDPPGSDTNSP	
	C94R/C99R eNOS mutant, histidine tagged, recombinant (enzyme, human, UniProt P29474 1-1203, looked up) MGNLKSVAQEPGPPCGLGLGLGLGLCGKQGPATPAPEPSRAPASLLPPAPEHSPPSSPLTQPPEGPKFPRVKNWEVGSITYDTLSAQAQQDGPRTPRRRLGSLVFPRKLQGRPSPGPPAPEQLLSQARDFINQYYSSIKRSGSQAHEQRLQEVEAEVAATGTYQLRESELVFGAKQAWRNAPRCVGRIQWGKLQVFDARDCRSAQEMFTYICNHIKYATNRGNLRSAITVFPQRCPGRGDFRIWNSQLVRYAGYRQQDGSVRGDPANVEITELCIQHGWTPGNGRFDVLPLLLQAPDDPPELFLLPPELVLEVPLEHPTLEWFAALGLRWYALPAVSNMLLEIGGLEFPAAPFSGWYMSTEIGTRNLCDPHRYNILEDVAVCMDLDTRTTSSLWKDKAAVEINVAVLHSYQLAKVTIVDHHAATASFMKHLENEQKARGGCPADWAWIVPPISGSLTPVFHQEMVNYFLSPAFRYQPDPWKGSAAKGTGITRKKTFKEVANAVKISASLMGTVMAKRVKATILYGSETGRAQSYAQQLGRLFRKAFDPRVLCMDEYDVVSLEHETLVLVVTSTFGNGDPPENGESFAAALMEMSGPYNSSPRPEQHKSYKIRFNSISCSDPLVSSWRRKRKESSNTDSAGALGTLRFCVFGLGSRAYPHFCAFARAVDTRLEELGGERLLQLGQGDELCGQEEAFRGWAQAAFQAACETFCVGEDAKAAARDIFSPKRSWKRQRYRLSAQAEGLQLLPGLIHVHRRKMFQATIRSVENLQSSKSTRATILVRLDTGGQEGLQYQPGDHIGVCPPNRPGLVEALLSRVEDPPAPTEPVAVEQLEKGSPGGPPPGWVRDPRLPPCTLRQALTFFLDITSPPSPQLLRLLSTLAEEPREQQELEALSQDPRRYEEWKWFRCPTLLEVLEQFPSVALPAPLLLTQLPLLQPRYYSVSSAPSTHPGEIHLTVAVLAYRTQDGLGPLHYGVCSTWLSQLKPGDPVPCFIRGAPSFRLPPDPSLPCILVGPGTGIAPFRGFWQERLHDIESKGLQPTPMTLVFGCRCSQLDHLYRDEVQNAQQRGVFGRVLTAFSREPDNPKTYVQDILRTELAAEVHRVLCLERGHMFVCGDVTMATNVLQTVQRILATEGDMELDEAGDVIGVLRDQQRYHEDIFGLTLRTQEVTSRIRTQSFSLQERQLRGAVPWAFDPPGSDTNSP	2
